Patent publication US20140179594A1, “STREPTOCOCCUS BACTERIOPHAGE LYSINS FOR TREATMENT OF GRAM POSITIVE BACTERIA IN COMPANION ANIMALS AND LIVESTOCK” (priority 2011, published 2014)

Columns and labels:
[1] = system: S. suis strain 7997; assay: PlySs2 storage stability, killing effectiveness; format: physicochemical, Streptococcus suis
Protocol: FIG. 9. The stability of purified PlySS2 was determined by evaluating killing effectiveness against strain 7997 after storage at 37° C. for up to 48 hours in buffer.
FIG. 10. Killing effectiveness, assessed by OD600 growth of strain 7997 upon treatment with PlySs2 lysin after lysin storage at −80° C. for up to 7 months in buffer.
The stability of purified PlySs2 lysin was determined upon maintenance at 37° C. for up to 48 hours in buffer. The PlySs2 lysin is >90% stable up to 24 hours and maintains at least 50% activity after 48 hours.
Stability of the PlySS2 lysin was evaluated on freezer storage at −80° C. The PlySs2 lysin retains essentially 100% activity on storage in buffer for up to at least 7 months at −80° C. (FIG. 10).

[2] = system: purified S. suis peptidoglycan; assay: PlySs2 bond specificity, mass spectroscopy of digest; format: biochemical, Streptococcus suis; conditions: overnight at 37° C.
Protocol: Investigations to determine the bond catalyzed by PlySs2 lysin have been undertaken. PlySs2 was incubated with purified S. suis peptidoglycan stripped of lipotechoic acid and carbohydrates overnight at 37° C. and the product submitted for mass spectroscopy.

[3] = system: S. suis strain 7997; assay: PlySs2 lytic activity at various concentrations, OD600; format: cell-based, Streptococcus suis
Protocol: FIGS. 15A and 15B (A) PlySs2 has acute lytic activity against S. suis strain 7997 at, or above 8 ug/mL. (B) Activity of PlySs2 assessed in vitro against S. suis strain 5735.
(§1) Readings (OD600) were taken for each well in a spectrophotometer every minute over an hour. The OD density indicates the amount of bacterial cell growth in the microtiter well.
(§2) This activity test was first determined for the pathogenic S. suis strain 7997 with various concentrations of PlySs2 (FIG. 15A). Specific activity of purified PlySs2 lysin was also assessed in vitro against S. suis strain S735 (FIG. 15B). […] Additional results are tabulated below in TABLE 1.

[4] = system: methicillin resistant Staphylococcus aureus strains (MRSA); assay: PlySs2 in vitro growth reduction and killing; format: cell-based
Protocol: as §1, §2

[5] = system: vancomycin intermediate sensitivity Staphylococcus aureus (VISA); assay: PlySs2 in vitro test, standard MIC analysis; format: cell-based; conditions: comparable in vitro tests (FIG. 18)
Protocol: (§3) FIG. 18. PlySS2 was tested by standard MIC analysis for its ability to kill strains of staphylococci. Included in the testing were resistant staphylococci such as Vancomycin resistant (VRSA), Vancomycin intermediate (VISA) and methicillin resistant (MRSA) staphylococci. The three VRSA strains tested represent half of all known isolates.

[6] = system: vancomycin resistant Staphylococcus aureus (VRSA); assay: PlySs2 in vitro test, standard MIC analysis; format: cell-based; conditions: comparable in vitro tests (FIG. 18)
Protocol: as §3

[7] = system: S. aureus MW2 and 8325; assay: Assessment of resistance, incrementally increasing concentrations; format: cell-based; conditions: concentration doubled daily up to 4× MIC over an 8-day period
[8] = system: cultures from the oral cavities of rats; assay: Oral cavity microbiota study, clearing zones on lawns; format: cell-based; conditions: 6 cultures, 10 μL drops on BHI agar; the cleared culture confirmed as S. aureus
[9] = system: S. suis strain 7997; assay: PlySs2 biochemical characterization, OD600 turbidity

B1: PlySs2: S. suis prophage lysin from strain 89/1591, amino acid sequence SEQ ID NO:3 (protein, listed as Streptococcus suis)
chain: MTTVNEALNNVRAQVGSGVSVGNGECYALASWYERMISPDATVGLGAGVGWVSGAIGDTISAKNIGSSYNWQANGWTVSTSGPFKAGQIVTLGATPGNPYGHVVIVEAVDGDRLTILEQNYGGKRYPVRNYYSAASYRQQVVHYITPPGTVAQSAPNLAGSRSYRETGTMTVTVDALNVRRAPNTSGEIVAVYKRGESFDYDTVIIDVNGYVWVSYIGGSGKRNYVATGATKDGKRFGNAWGTFK
Q: With B1 as the molecule, how does the activity maintained ([1]; 37° C. in buffer, after 48 hours) read?
A: at least 50%

Q: And the “stability of purified lysin” value ([1]; 37° C. in buffer, up to 24 hours)?
A: > 90%

Q: And the “activity retained on freezer storage” value ([1]; −80° C. in buffer, up to at least 7 months)?
A: ~100%

Q: And the “bond catalyzed (cleavage type)” value [2]?
A: N-acetylmuramoyl,-L-alanine amidase

Q: What about the “concentration with acute lytic activity” value [3] of the same molecule?
A: ≥ 8 µg/mL

Q: And the “activity against MRSA strains” value [4]?
A: reduction in growth and killing

Q: What about the “effectiveness against VISA strains” value [5] of the same molecule?
A: similarly effective

Q: And the “effectiveness against VRSA strains” value [6]?
A: similarly effective

Q: What about the “development of resistance (4-fold increase in MIC)” value [7] of the same molecule?
A: Neither S. aureus strain developed resistance

Q: And the “clearing zone around PlySs2 drops on lawns of rat oral cavity cultures” value [8]?
A: only appeared on one culture

Q: And the “NaCl concentration of greatest activity” value ([9]; S. suis strain 7997)?
A: 0 mM

Q: And the “pH up to which acute activity is shown” value ([9]; S. suis strain 7997, Bis-tris propane (BTP) buffer)?
A: ≤ 9.7

Q: And the “pH of strongest activity (optimal pH)” value ([9]; S. suis strain 7997, phosphate/citrate buffer)?
A: 8.0
